Experimental data from patent publication US20170080102A1.

B1: IMGN779 (anti-huCD33 antibody huMy9-6 conjugated to DGN462 via a cleavable disulfide sulfo-SPDB linker) (antibody, from a related filing, V domains shown)
VH: QVQLQQPGAEVVKPGASVKMSCKASGYTFTSYYIHWIKQTPGQGLEWVGVIYPGNDDISYNQKFQGKATLTADKSSTTAYMQLSSLTSEDSAVYYCAREVRLRYFDVWGQGTTVTVSS
VL: EIVLTQSPGSLAVSPGERVTMSCKSSQSVFFSSSQKNYLAWYQQIPGQSPRLLIYWASTRESGVPDRFTGSGSGTDFTLTISSVQPEDLAIYYCHQYLSSRTFGQGTKLEIKR

Legend:
[1] = molecular target: CD33 protein (human), on primary patient AML cells and AML cell lines (human) (UniProt P20138); experiment: cell-based or functional assay
Sequence of UniProt P20138 (P20138 18-364): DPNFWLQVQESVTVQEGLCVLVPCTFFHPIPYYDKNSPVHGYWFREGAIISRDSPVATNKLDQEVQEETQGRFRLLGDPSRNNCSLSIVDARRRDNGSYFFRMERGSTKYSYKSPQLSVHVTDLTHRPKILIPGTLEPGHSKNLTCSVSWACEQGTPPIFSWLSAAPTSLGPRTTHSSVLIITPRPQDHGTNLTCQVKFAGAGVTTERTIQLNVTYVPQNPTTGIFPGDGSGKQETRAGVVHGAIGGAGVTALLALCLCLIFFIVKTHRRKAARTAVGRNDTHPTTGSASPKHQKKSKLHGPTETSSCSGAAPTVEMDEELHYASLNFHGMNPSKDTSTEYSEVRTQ

[2] = molecular target: CD33 protein (human), on primary patient AML cells and AML cell lines (human) (UniProt P20138); experiment: cell-based or functional assay; remark: listed apart in the source

Molecule	IC50, cytotoxicity against primary patient AML cells [1]	IC50, cytotoxicity on MOLM-13 FLT3-ITD AML cell line (WST-8 assay) [2]	IC50, cytotoxicity on MV4-11 FLT3-ITD AML cell line (WST-8 assay) [2]	IC50, cytotoxicity on a panel of 21 AML cell lines (WST-8 assay) [2]	IC50, cytotoxicity on a panel of 21 AML cell lines (WST-8 assay), median [2]	IC50, in vitro cytotoxicity against primary patient AML cells [2]
non-binding chimeric IgG1-DGN462 conjugate (antibody)	> 1000 pM	–	–	–	–	–
B1	–	5 pM	2 pM	2 to 3000 pM	70 pM	10 to 1500 pM
